Experimental data as given in article PMC9825171 (Nucleic Acids Research, 2022).

T1: human L3MBTL3 fragment 1–523 (human, UniProt Q96JM7-2 1-523)
T1 sequence (looked up): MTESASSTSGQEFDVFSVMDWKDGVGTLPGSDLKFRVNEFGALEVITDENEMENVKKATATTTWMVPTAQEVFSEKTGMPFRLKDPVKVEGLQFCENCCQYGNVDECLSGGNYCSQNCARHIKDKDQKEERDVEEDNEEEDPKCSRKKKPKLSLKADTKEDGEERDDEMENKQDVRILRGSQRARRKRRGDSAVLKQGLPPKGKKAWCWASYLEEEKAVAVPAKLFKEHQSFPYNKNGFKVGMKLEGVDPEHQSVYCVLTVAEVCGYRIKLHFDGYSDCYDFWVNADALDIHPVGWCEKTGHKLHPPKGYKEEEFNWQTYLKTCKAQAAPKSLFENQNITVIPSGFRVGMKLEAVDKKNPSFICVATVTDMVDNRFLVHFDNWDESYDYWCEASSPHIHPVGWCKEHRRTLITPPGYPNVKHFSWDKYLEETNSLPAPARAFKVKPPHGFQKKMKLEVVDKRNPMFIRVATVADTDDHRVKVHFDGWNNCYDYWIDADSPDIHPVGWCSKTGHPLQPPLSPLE


How the values were obtained:
Test in all cases: ITC
[1] = target: T2, RBPJ (53–474) E260A (Mus musculus, UniProt P31266 53-474, E260A)
T2 sequence (P31266 53-474 E260A): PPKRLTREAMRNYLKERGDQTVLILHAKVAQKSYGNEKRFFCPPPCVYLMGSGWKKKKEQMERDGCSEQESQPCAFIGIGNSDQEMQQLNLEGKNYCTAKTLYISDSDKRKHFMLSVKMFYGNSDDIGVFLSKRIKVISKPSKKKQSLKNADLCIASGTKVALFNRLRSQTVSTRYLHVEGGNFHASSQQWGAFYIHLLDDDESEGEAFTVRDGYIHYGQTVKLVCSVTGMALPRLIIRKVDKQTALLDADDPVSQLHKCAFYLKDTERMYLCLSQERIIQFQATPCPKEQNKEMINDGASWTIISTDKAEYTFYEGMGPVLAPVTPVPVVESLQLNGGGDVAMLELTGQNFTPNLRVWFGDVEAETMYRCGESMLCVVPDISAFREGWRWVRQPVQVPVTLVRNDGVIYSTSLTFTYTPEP

[2] = target: RBPJ (53–474) Q333A (Mus musculus, UniProt P31266 53-474, Q333A)
Chain of RBPJ (53–474) Q333A (P31266 53-474 Q333A): as the sequence (P31266 53-474 E260A) above, with A208E, Q281A counted along it

[3] = target: RBPJ (53–474) E260K (Mus musculus, UniProt P31266 53-474, E260K)
Chain of RBPJ (53–474) E260K (P31266 53-474 E260K): as the sequence (P31266 53-474 E260A) above, with A208K counted along it

[4] = target: RBPJ (53–474) V263A (Mus musculus, UniProt P31266 53-474, V263A)
Chain of RBPJ (53–474) V263A (P31266 53-474 V263A): as the sequence (P31266 53-474 E260A) above, with A208E, V211A counted along it

[5] = target: T2, RBPJ (53–474) E260A; remark: listed apart in the source
[6] = target: RBPJ (53–474) K275M (Mus musculus, UniProt P31266 53-474, K275M)
Chain of RBPJ (53–474) K275M (P31266 53-474 K275M): as the sequence (P31266 53-474 E260A) above, with A208E, K223M counted along it

[7] = target: T1, human L3MBTL3 fragment 1–523

Row | Kd [1] [nM] | Ka [2] [M⁻¹] | Kd [2] [nM] | dH [2] [kcal/mol] | Ka [3] [M⁻¹] | dH [3] [kcal/mol] | Ka [4] [M⁻¹] | Kd [4] [nM] | dH [4] [kcal/mol] | Ka [5] [M⁻¹] | dH [5] [kcal/mol] | Ka [6] [M⁻¹] | Kd [6] [nM] | dH [6] [kcal/mol] | Ka [7] [M⁻¹] | Kd [7] [nM] | Binder
1 | 3730 | 760000 | 1300 | -10.6 | 220000 | -16.8 | 330000 | 3000 | -10.3 | 260000 | -13.6 | 240000 | 4200 | -13.7 |  |  | MENVKKATATTTWMVPTAQ (peptide, UniProt Q96JM7-2 52-70, looked up) [L3MBTL3 (52–70) wild-type peptide (19-mer)]
2 |  |  |  |  |  |  |  |  |  |  |  |  |  |  | 540000 | 1900 | Mus musculus CSL (RBPJ), residues 53–474 (structural core domain), wild type, as used for ITC (domain or fragment) not shown
